# Assay results: publication PMC4537050, “A long pentraxin-3-derived pentapeptide for the therapy of FGF8b-driven steroid hormone-regulated cancers” (Oncotarget, 2015)
# T1: FGF18 (UniProt O76093 28-207)
# T1 construct: fibroblast growth factor 18 (FGF18)
# T1 sequence (looked up): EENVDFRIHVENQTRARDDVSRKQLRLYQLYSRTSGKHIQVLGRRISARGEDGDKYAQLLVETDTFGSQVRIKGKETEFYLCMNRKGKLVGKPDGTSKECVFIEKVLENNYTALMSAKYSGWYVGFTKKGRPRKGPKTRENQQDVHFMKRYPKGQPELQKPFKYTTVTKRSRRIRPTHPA
# T2: FGF5 (UniProt P12034 21-268)
# T2 construct: fibroblast growth factor 5 (FGF5)
# T2 sequence (looked up): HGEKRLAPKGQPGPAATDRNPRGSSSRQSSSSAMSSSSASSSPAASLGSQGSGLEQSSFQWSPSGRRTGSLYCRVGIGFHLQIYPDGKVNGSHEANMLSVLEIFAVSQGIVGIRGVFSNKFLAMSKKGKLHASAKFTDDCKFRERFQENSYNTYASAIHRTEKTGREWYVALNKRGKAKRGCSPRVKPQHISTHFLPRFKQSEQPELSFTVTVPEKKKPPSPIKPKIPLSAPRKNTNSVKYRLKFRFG
# T3: FGF7 (UniProt P21781 32-194)
# T3 construct: fibroblast growth factor 7 (FGF7)
# T3 sequence (looked up): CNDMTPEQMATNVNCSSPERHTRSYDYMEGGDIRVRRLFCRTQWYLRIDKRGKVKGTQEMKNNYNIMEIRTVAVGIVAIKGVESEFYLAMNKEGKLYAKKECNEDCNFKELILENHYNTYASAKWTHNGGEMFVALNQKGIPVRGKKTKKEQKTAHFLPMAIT
# T4: FGF22 (UniProt Q9HCT0 23-170)
# T4 construct: fibroblast growth factor 22 (FGF22)
# T4 sequence (looked up): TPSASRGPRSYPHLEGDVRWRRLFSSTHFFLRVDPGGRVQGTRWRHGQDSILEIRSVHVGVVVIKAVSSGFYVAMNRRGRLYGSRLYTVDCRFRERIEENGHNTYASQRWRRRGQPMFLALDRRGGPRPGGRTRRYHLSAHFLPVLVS
# T5: FGF17 (UniProt O60258 23-216)
# T5 construct: fibroblast growth factor 17 (FGF17)
# T5 sequence (looked up): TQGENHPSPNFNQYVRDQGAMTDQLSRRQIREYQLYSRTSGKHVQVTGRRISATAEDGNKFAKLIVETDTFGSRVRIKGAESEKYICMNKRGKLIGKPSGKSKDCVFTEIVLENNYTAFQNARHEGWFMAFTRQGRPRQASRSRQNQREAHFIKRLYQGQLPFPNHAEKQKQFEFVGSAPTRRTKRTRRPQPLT
# B1: Ac-ARPCA-NH2, acetylated pentapeptide corresponding to PTX3(100-104) (peptide)
# peptide: Ac-ARPCA-NH2
# notes: long pentraxin-3 (PTX3), residues 100-104 of the N-terminal extension; source: synthetic peptide, provided by R. Longhi and A. Gori (CNR, Milano, Italy)
# Experiments:
# Assay in all cases: SPR; BIAcore X-100; FGF8b (20 μg/ml in 10 mM sodium acetate, pH 6.0) or other FGFs (10 mM sodium acetate at optimal pH) immobilised on a CM5 sensor chip by EDC/NHS; peptide injected (ARPCA 8 μM to 2000 μM), 4 min at 30 μl/min, 10 min dissociation, in HBS; equilibrium values fitted with the Langmuir equation for monovalent binding
# Details in all cases: both partners purified
# FGF18 = biological target: T1, FGF18
# FGF5 = biological target: T2, FGF5
# FGF7 = biological target: T3, FGF7
# FGF22 = biological target: T4, FGF22
# FGF20 = biological target: T6, FGF20 (UniProt Q9NP95 1-211)
# T6 construct: fibroblast growth factor 20 (FGF20)
# FGF16 = biological target: T7, FGF16 (UniProt O43320 1-207)
# T7 construct: fibroblast growth factor 16 (FGF16)
# FGF17 = biological target: T5, FGF17
# T6 sequence (Q9NP95 whole entry): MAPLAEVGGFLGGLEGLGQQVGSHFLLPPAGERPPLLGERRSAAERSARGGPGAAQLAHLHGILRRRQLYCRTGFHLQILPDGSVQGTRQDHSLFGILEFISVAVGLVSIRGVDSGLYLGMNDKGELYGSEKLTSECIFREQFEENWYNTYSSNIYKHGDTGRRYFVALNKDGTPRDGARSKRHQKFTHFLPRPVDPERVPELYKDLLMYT
binder,measurement,setting,value
B1,Kd,FGF18,26 µM
same,Kd,FGF5,299 µM
same,Kd,FGF7,885 µM
same,Kd,FGF22,129 µM
same,Kd,FGF20,264 µM
same,Kd,FGF16,112 µM
same,Kd,FGF17,476 µM
